The source of these data is CN116478288A.

Experiment [1] has as its target 人源CD47 (on cells: hCD47-overexpressing CHO-K1; Raji) (human) (UniProt Q08722). The experiment can be described thus: flow cytometry, control human IgG on CHO-K1 overexpressing human CD47 (PBS background 139.0). On the technique in general: A flow cytometer gives signals particle by particle.
Experiment [2] concerns the target 食蟹猴CD47 (on overexpressing CHO-K1 cells) (cynomolgus monkey). The experiment is described as follows: flow cytometry, control human IgG on CHO-K1 overexpressing cynomolgus CD47 (PBS background 92.8).

Sequence of UniProt Q08722 (Q08722 19-323): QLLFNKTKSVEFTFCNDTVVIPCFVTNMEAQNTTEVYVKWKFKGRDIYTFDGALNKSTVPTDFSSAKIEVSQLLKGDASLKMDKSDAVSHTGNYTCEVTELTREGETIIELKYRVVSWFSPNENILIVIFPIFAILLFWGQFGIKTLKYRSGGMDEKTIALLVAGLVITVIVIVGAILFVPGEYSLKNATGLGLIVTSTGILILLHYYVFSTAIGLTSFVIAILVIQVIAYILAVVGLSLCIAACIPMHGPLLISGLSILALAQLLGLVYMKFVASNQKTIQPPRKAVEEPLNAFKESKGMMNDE

As to human IgG (antibody), the MFI in experiment [1] came out at 101 MFI; in experiment [2], 71 MFI.
